Assay: soluble on expression in E. coli; label from the status in PepcDB or PDB records

**Q.** For “MSLNFDWIKTRSDFDDDKPAVIDHAKQTSWTYQQLNARADNMAHYLTSQGVKKGDVIGIFAPNDIAILDLLFACFKTGAVFLPLNWRLNPKEIAAIVEDAQLKLLFYAEKHLSSLTDIDQNLLHMDIDVAQYDEIVNPDYHQPFQATPVEPQDLAALIYTSGTTGSPKGVMFSYESFVHNGANLELTYKFNSNYITIVSTPMFHVLGFNDTVLPVLMSGGTLILQRYFNGEELNDMIAQYHPTFIIMIPTMYYSTLRASNFNPENFRAMDYIIQGGSQPLPSIQAAFKQYGINIINGYGLTEAPLVLVNTPENSKRKPMSIGKAVMFVDARILDDNGEEVPTGEIGELAIKAKNVTPGYWNKPAETAKAFHGRYLLTGDLAKMDDDGDIFIIDRKKELIITGGENVLPSEVENALAEHPLVDRCVVVGYDHPKYGESIAAAIILREDEPHYAEILDQHMRSRLAGYKVPRMYVPVTHMPLNSTQKPDKLAIRQMMNDKVSQTLEGHHHHHH”, which “soluble on expression in E. coli” value is on record?
**A.** soluble

**Q.** For “MHIAIIGAAGMVGRKLTQRLVKDGSLGGKPVEKFTLIDVFQPEAPAGFSGAVDARAADLSAPGEAEKLVEARPDVIFHLAAIVSGEAELDFDKGYRINLDGTRYLFDAIRIANGKDGYKPRVVFTSSIAVFGAPLPYPIPDEFHTTPLTSYGTQKAICELLLSDYSRRGFFDGIGIRLPTICIRPGKPNAAASGFFSNILREPLVGQEAVLPVPESIRHWHASPRSAVGFLIHGAMIDVEKVGPRRNLSMPGLSATVGEQIEALRKVAGEKAVALIRREPNEMIMRMCEGWAPGFEAKRARELGFTAESSFEEIIQVHIEDELGGSLK”, which “soluble on expression in E. coli” value is on record?
**A.** soluble

**Q.** For “SLREMKHLRSIEQEIKMSIPSQEVPTIEDVVEKQKESWKKQIAHRIEKGSNQKHLFEQMTEELMAEYDSKEVISALLQLNYAMDTAPEDAGYSFGETGGAKGMVRFFINVGRNVNMSPKILVEEIAELVGIPGKAIGRIDIFEKFTFVEVPEEVAPFVYEALRYSRINGARVNLEPAKPRPKRESQRRTFQK”, which “soluble on expression in E. coli” value is on record?
**A.** soluble

**Q.** For “MKIVRRDFVRNGPGSVKMVAEDSDDLWYAYNLIAVGDSVMAVTFRKVQREIPGGGRDSERVKLKLEVQVEEVDYDKDGSVLRIRGKNILENEHVKIGAFHTLELELKRPFVLRKEMWDSMALDTLKQASDPAASADLAVVLMQEGLAQIFLVGRSVTSSRARIETSIPRKHGPAIAGYESALKKFFENVLQAFVKHVDFSVVRCAVVASPGFTKDQFHRHLLLEAERRQLRPIIENKSRIILVHTNSGYRHSLGEVLHAPNVMNMIKDTKAAKEVKALNDFHNMLSTEPDRACYGPKHVEVANERMAIQTLLITDELFRNSDVKTRKKYVNLVESVKDSGGDAFIFSAMHVSGEQLAQLTGIAALLRFPLPELEDIEM”, which “soluble on expression in E. coli” value is on record?
**A.** soluble

**Q.** With “MAHHHHHHMKNGKPMGGRETQKQKQKQKQVTLLTWINRANQPRQLTRKTKKAHEKQEERRIWLGAAKRLPQKMPQSMRCNYDIRTHINTHIHKHSHSHSHQLQTYTRTHHLSQKEMKRNEPQDIIRFHSNTQEPAGSTSSHVVTRLVITLLLLCTTQICPTSTEAVERGKQGALLFR” as the sequence, how does the “soluble on expression in E. coli” value read?
**A.** soluble

**Q.** Which “soluble on expression in E. coli” value does the source give for “MGHHHHHHMSADFGLIGLAVMGQNLILNAADHGFTVCAYNRTQSKVDHFLANEAKGKSIIGATSIEDFISKLKRPRKVMLLVKAGAPVDALINQIVPLLEKGDIIIDGGNSHFPDSNRRYEELKKKGILFVGSGVSGGEEGARYGPSLMPGGSEEAWPHIKNIFQSISAKSDGEPCCEWVGPAGAGHYVKMVHNGIEYGDMQLICEAYDIMKRLGGFTDKEISDVFAKWNNGVLDSFLVEITRDILKFDDVDGKPLVEKIMDTAGQKGTGKWTAINALDLGMPVTLIGEAVFARCLSALKNERIRASKVLPGPEVPKDAVKDREQFVDDLEQALYASKIISYAQGFMLIREAAATYGWKLNNPAIALMWRGGCIIRSVFLGQITKAYREEPDLENLLFNKFFADAVTKAQSGWRKSIALATTYGIPTPAFSTALSFYDGYRSERLPANLLQAQRDYFGAHTFRVLPECASDNLPVDKDIHINWTGHGGNVSSSTYQA” here?
**A.** soluble

**Q.** Which “soluble on expression in E. coli” value does the source give for “MILINKRAEKQDYQTILAIWEKSVIVTHDFLTAEDRQFYKEQIPLFLDNVELFLWFAGEEVIGFSGTSERELDMLFLDPVATGNGYGSQILGWLIENKRINLVDVNEQNENATRFYLKHGFVVSSRSDLDGFGKPYPILQLQLKERVNGV” here?
**A.** soluble

**Q.** Which “soluble on expression in E. coli” value does the source give for “MSLRAVVTMGHGDLDQLVLHPDWPRPDPEPGEVLIRVGACGLNNTDVNTRSGWYSKTVTDATTGGAFDEVGEDDPTWGGAPITFPRIQGADVCGTIVAVGAGVDAARIGERVITDGWLRDADAPEDMNKTGYFGSERNGGFAEYTTIPSSNALDVNSTLSDAELATFSCSYSTAEGMLTRARVTADDTVLIPGASGGVGGALVQLAKRRGARVIAIASEGKHSDVAALGPDMILPRAPAHLRSALGDERITVVADVVGGPYWPSLIDILERGGRYTCSGAIAGPMVSLDLRTFYLRDLTFTGSTVIDLEVMPNIVRYIEEGAIKPSLAATYPLEDLRAAQSAFIAKEHTGNIVVTEGHHHHHH” here?
**A.** not soluble

**Q.** For “MPVITILGCRMFEDEIMHLLENDPEIEEVLVVENEDCVGIMKKMAEAGLAYTALSPEKIPEKSSETGKGLTLIVYMLELALHAIPENLKKTVYSKVELMSSCSDGILLFYGLCGNVLGKIEEDFKDLGCQVCILKEENGEIVDDCIGAVLGGRKQYLEVLKSCRGVGTFFLTPMWAVNWREMIRTSGLSQNPDDISMSKFVFDYAGYKRVARLDTGLAYEKDFDACVKEFSTLFEFEVTELEGTLHLIENCYAKTKASVFEACPRSQALEHHHHHH”, which “soluble on expression in E. coli” value is on record?
**A.** soluble

**Q.** With “MSEAETGEPNGFRSCYDKLRKAVGNIPMDASKSTKLHNLSSRKISEILPNLYLSGRTVSQNSELLKEKNITTVINVSDREVVNYKNNQKFIKNYRFYAMSDTASAKFDGIIEEAVRIIHDSRSKEEGVLVHCFLGVSRSATLVAFYLISALSINWRDAVDFIHHRRFSANPNFGFLHQLKVYSTTKAKEFRNQLISERCLRMRESDKDIIKKYLPLAVFEL” as the sequence, how does the “soluble on expression in E. coli” value read?
**A.** not soluble

**Q.** Which “soluble on expression in E. coli” value does the source give for “MSLSKPLQVNPHKLSPVMGAHLACLGVDGVMPIIHGAQGCSNFSKVFFTRHFSEPIVSHSTAVNDITAVLDGGACVAEAIDTLAKKSPFKLAAIITTGLTETKGDDVKGAIGQLSYPALYFPTPDYEGGLEEGFALAIEVFIKERMVSVTTPDPKLALILPHASMTPLEVEKLKEFLEDFGVRALALPDLSGSLDGHLEERQGSVSKGGITLEEIEEASRAGMILSIGESTRKARQAFLAKNPGAFDLNVESLYGLRSSDALIRALMDWTGHEPSVRIKRWRARLQDMMLDSHFALGGKRVIAALENDHLLGISKILEEVGMSFELAVATTGGPAMTKISAKEAVVGDLEHLMQNIESSEGVIACERLGGFLPKETPWLVRGYPIFERIGTGLGNDILYEGGCYLLKELANLFLKEHQAHEGHHHHHH” here?
**A.** soluble

**Q.** For “MGSDKIHHHHHHMSEIEAQLPVIHFADAKTFETWIAEQGSDCKGLWVKFAKKASGIASITPREALDVALCYGWIDGQRIGSDSDFYLNKYTPRRARSRWSQVNCARATELIAEGRMTPRGLAEVERARTDGRWDAAAPPPSKATVPDDLHDALAQNAAAKMLFDELDSRNRYAILFRIHDAKKSETRAARIEKYVGMLARGETPYPRRKAR”, which “soluble on expression in E. coli” value is on record?
**A.** not soluble

**Q.** Which “soluble on expression in E. coli” value does the source give for “MGSDKIHHHHHHSSCGNDESDPDSTVTIAMATVEKQPQYDAPYLVLDNGEKLWVVQHIVPYRDLKAGERIFGNYSFLEAGESGFAYNIRLNDYTLVPVQKIIGLNPDNMDSIGNMKVQIKDMWPSDDYLNVRFMLNFPSPQKPILNLVVNEMIPWTKDGYAHLELRYNNNGSQGRLVPGMVSFKLDDYSPENSELKGIKVLVNPVDGEEKTYIFSYPLTGEDVPGFNPLDLAELK” here?
**A.** not soluble

**Q.** With “MSLVGDVYLGVGSASSEYWAAYIEGAKAVASSLGKDVNVIPSEFDGQKLLEQFGAVFAAGCEDCVVTVDPASNAFTKAMIERADTAGAKYVNLWNRPDEIHPWDTVPNTWIANISFDGVDSGYQNGMALCNALGGKGNIVALNGIPDNPPAKQRIAGLHKALQECPGLKLLDTQVGNWDQTQGQSITRAWLAKYGDELNGIFSANDGMALGAVAALREKGLVGKILVTGSDGSSDVIKLIEKGEMLSTMHIDGYVQGAYAVALAAAAVKGDIKMDELKQDQRDFFLSQTLVTKDNAASVLNSKKDASQFSYDALKGNFWAASVGQIPAGANEGHHHHHH” as the sequence, how does the “soluble on expression in E. coli” value read?
**A.** soluble

**Q.** Which “soluble on expression in E. coli” value does the source give for “MSLGREKGLSTFLFLLLFSISLHAQRQDILLNNNWNFRFSHQVQGDTRRVDLPHTWNAQDALAGKIDYKRGIGNYEKALYIRPEWKGKRLFLRFDGVNSIADVFINRKHIGEHRGGYGAFIFEITDLVKYGEKNSVLVRANNGEQLDIMPLVGDFNFYGGIYRDVHLLITDETCISPLDYASPGVYLVQEVVSPQEAKVCAKVNLSNRAADGTAELQVLVTDGTKVICKESRNVSLKQGADILEQLPLLIQKPRLWNGCEDPFMYQVSISLHKDGKQIDSVTQPLGLRYYHTDPDKGFFLNGKHLPLHGVCRHQDRAEVGNALRPQHHEEDVALMREMGVNAIRLAHYPQATYMYDLMDKHGIVTWAEIPFVGPGGYADKGFVDQASFRENGKQQLIELIRQHYNHPSICFWGLFNELKEVGDNPVEYVKELNALAKQEDPTRPTTSASNQDGNLNFITENIAWNRYDGWYGSTPKTLATFLDRTHKKHPELRIGISEYGAGASIYHQQDSLKQPSASGWWHPENWQTYYHMENWKIIAERPFVWGTFVWNMFDFGAAHRTEGDRPGINDKGLVTFDRKVRKDAFYFYKANWNKQEPMIYLAEKRCRLRYQPEQTFMAFTTAPEAELFVNGVSCGKQKADTYSTVVWKNVKLTSGENIIRVTTPGKKPLTDEVTVEYKEDREGHHHHHH” here?
**A.** not soluble

**Q.** With “MRRVETDSTGQIEVDNDKYWGAQTQRSIEHFSIGSDLMPIEVIKALAIIKKAAAITNHQLGILARTKKEIIIKVADEIIAGELDEHFPLRVLMTGSGTQSNMNVNEVISNRAIELLGGKKGSKNPIHPNDDVNMSQSSNDTFPSAMYIATALEINNRLLPALEYMQQQLADKAKQWDDIVKIGRTHMQDAVPLTLGQEFSGYAALLENNIQRIKDTLKYVYQLALGGTAVGTGLNAPDGFAEITAKYIATITSLAFVSATNKFEVQGSHDALVAVMGQLKTLANSLFKIANDIRLLSCGPRAGFHELLIPENEPGSSIMPGKVNPTQCEAMAMVAAQVIGYDVAVGIGGSAGYLEMNVYKPLIIFNIIQSIKIISDSCVNFTKYLLEGMKPNHDKIEFYLKNSLMLVTALSPVIGYDKAAKLAHYAEQKNISLAEANQELKFLSKEEFDKVVDPYKMTKGGIL” as the sequence, how does the “soluble on expression in E. coli” value read?
**A.** not soluble

**Q.** Which “soluble on expression in E. coli” value does the source give for “MSDTHGKFIWVELMTPDMEAAARFYGHVVGWQTKDFGSPEMPYLVLEADGKGMGGVMELTEEHKGQGIPPNWTAYVDVDDVDATAKLFADKGGAIRRPPQDIPEIGRFAVVADPYGAVLCIMTPLPMETGGFPEDMQEKKGHVGWYELFTDNVDEAMAFYGEVFGWTKDHDFDMGEMGPYRIFAHKGKAVGGIMKRMPQVPVCHWGYYFNVDGIEDAITRVSTGGGKVVNGPMEVPGESWIVNCVDPQGAYFSLVSQKK” here?
**A.** not soluble

**Q.** With “MRSGDAEIKGIKPKVIEEYSLSQGSGPSNDSWKSLMSSAKDTPLQYDHMNRESLKKYFNPNAQLIEDPLDKPIQYRVCEKCGKPLALTAIVDHLENHCAGASGK” as the sequence, how does the “soluble on expression in E. coli” value read?
**A.** soluble

**Q.** For “MGSDKIHHHHHHMDFSDEKMPFLADAVDRVRVEECFRQCLVIAQNFRVQNIRVIRHKLGRRCLIEYELMDDVGEIITLIGKVRAKGTDFHSYELQKSLWESGFADDSADGISVPEPVGIIPEWQMWLQRRVEGVTATQILSQTNGIFPAKLIAEAAYKLHQANIIPRRSHRMSDELRILHERIPLVMEQYPQWQRRLERILLASDDLGANTPELKLCGIHRDFYPDQVIMNNSRLYLLDLDLYCAGNPAVDIGNFIAHLQEYSLRTVGNPQALQEYEDILKTRFLQLTGDEFSLAIQAYTILTLVRHIYISTLFPERRPFTAALLHLCEQRLNITHNS”, which “soluble on expression in E. coli” value is on record?
**A.** not soluble
